Data published in IntAct's records for PubMed 21565175.

Legend:
ARHGAP30, Q7Z6I6-2 [1] = target: ARHGAP30, Q7Z6I6-2
ARHGAP30, Q7Z6I6-2 [2] = target: ARHGAP30, Q7Z6I6-2; remark: listed apart in the source
rhg31_mouse Arhgap31 = rhg31_mouse Arhgap31 (UniProt A6X8Z5)
Chain of rhg31_mouse Arhgap31 (A6X8Z5 whole entry): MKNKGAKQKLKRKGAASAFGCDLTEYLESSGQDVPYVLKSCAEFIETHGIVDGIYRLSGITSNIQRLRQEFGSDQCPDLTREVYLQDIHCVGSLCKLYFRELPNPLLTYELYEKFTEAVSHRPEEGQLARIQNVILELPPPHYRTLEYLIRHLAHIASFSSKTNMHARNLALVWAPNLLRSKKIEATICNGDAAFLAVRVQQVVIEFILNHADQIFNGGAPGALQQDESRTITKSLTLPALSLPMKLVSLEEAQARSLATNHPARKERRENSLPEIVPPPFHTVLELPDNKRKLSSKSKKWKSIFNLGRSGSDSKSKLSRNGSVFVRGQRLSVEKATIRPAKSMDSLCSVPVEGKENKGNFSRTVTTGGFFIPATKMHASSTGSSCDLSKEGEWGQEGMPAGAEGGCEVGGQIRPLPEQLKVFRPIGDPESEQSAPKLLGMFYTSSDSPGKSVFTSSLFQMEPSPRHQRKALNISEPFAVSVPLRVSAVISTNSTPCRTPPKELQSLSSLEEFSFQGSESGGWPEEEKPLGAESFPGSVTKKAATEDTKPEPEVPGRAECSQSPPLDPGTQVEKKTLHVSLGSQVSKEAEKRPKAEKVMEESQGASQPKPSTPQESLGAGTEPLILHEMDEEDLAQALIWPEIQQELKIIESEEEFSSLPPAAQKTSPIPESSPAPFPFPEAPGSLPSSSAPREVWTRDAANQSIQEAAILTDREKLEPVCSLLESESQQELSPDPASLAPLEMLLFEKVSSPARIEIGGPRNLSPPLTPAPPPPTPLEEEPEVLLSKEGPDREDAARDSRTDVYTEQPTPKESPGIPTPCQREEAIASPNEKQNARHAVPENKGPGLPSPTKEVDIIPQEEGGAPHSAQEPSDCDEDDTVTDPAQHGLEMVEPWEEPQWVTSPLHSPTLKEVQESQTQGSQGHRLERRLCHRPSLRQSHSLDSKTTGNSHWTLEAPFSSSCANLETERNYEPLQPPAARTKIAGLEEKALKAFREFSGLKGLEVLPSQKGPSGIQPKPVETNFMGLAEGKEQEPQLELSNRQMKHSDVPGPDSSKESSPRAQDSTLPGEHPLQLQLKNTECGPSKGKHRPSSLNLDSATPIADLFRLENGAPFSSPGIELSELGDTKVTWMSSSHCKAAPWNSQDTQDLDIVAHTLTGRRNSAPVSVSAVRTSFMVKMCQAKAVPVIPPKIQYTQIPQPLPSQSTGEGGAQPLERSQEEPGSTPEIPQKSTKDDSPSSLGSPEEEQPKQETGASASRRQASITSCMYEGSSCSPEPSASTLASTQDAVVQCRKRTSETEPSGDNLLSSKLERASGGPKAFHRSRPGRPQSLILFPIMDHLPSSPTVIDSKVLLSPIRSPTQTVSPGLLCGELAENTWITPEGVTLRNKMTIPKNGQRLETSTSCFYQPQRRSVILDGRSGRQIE

Chain of ARHGAP30, Q7Z6I6-2 (Q7Z6I6 other isoform, or with tags, fused parts or gaps): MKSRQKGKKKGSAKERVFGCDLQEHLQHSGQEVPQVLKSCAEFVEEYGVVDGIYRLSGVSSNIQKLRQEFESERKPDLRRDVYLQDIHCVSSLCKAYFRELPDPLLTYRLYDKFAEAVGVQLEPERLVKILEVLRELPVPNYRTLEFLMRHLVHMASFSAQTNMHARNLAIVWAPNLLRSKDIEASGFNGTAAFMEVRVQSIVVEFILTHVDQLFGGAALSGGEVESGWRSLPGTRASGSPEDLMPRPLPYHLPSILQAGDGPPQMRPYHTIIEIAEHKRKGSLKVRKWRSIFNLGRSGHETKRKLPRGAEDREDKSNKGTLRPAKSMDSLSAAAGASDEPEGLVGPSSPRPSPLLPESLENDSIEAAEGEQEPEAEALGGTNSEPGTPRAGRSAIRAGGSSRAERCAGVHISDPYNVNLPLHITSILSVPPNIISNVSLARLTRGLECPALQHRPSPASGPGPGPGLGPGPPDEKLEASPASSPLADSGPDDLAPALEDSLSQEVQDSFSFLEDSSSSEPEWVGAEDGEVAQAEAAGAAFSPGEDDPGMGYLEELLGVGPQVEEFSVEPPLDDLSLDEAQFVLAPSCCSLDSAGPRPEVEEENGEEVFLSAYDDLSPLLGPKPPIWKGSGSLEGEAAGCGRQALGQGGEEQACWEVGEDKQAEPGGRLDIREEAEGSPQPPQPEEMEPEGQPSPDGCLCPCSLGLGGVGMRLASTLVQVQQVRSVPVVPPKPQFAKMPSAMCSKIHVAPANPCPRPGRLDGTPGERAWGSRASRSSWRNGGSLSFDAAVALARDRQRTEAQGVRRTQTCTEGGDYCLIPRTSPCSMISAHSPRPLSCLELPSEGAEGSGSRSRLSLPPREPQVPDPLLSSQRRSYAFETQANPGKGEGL
Chain of Rho-related GTP-binding protein RhoU (Homo sapiens), Q7L0Q8 F86C (Q7L0Q8 whole entry F86C): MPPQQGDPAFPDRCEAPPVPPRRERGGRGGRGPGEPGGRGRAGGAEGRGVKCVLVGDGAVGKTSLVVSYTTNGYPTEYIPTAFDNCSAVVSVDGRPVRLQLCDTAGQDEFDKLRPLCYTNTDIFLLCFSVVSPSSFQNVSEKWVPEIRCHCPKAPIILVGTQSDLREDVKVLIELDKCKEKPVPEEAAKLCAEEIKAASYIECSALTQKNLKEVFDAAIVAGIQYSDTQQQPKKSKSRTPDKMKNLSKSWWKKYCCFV

Row | Substance | effect of a mutation on the interaction (ARHGAP30, Q7Z6I6-2 [1]) | effect of a mutation on the interaction (ARHGAP30, Q7Z6I6-2 [2]) | effect of a mutation on the interaction (rhg31_mouse Arhgap31)
1 | Rho-related GTP-binding protein RhoU (Homo sapiens), Q7L0Q8 T63N | with no effect |  | disrupting interaction strength
2 | Rho-related GTP-binding protein RhoU (Homo sapiens), Q7L0Q8 P80G | with no effect |  | 

Second part, the substance after the results:

Row | effect of a mutation on the interaction (ARHGAP30, Q7Z6I6-2 [1]) | effect of a mutation on the interaction (ARHGAP30, Q7Z6I6-2 [2]) | effect of a mutation on the interaction (rhg31_mouse Arhgap31) | Substance
3 | disrupting interaction strength | decreasing interaction strength |  | Rho-related GTP-binding protein RhoU (Homo sapiens), Q7L0Q8 F83G
4 | with no effect |  | with no effect | Rho-related GTP-binding protein RhoU (Homo sapiens), Q7L0Q8 Q107L
5 | with no effect |  |  | Rho-related GTP-binding protein RhoU (Homo sapiens), Q7L0Q8 F86C
